# From the RNAGym collection of RNA variant scans (doi:10.7554/elife.90254)
# B1: OR4K15 (parent)
# chain: GUUAACGGUCAUAGGCCAUGGAAACUAGGAGCACCAUUUCGCUGCCAGUGAAGAAAUGAACAAAGAAAAUCUGGGCCAGGCAGGCAUCAAAAGAAAUAGUCUUGCGCUCAACCAGAAAGUCUGUAAUCAUUUUAAGGGUA
# Variants of: B1
# Assay: self-cleavage, relative activity (ratio to wild type); higher = more cleavage; in vitro, sequencing; the parent is a self-cleaving ribozyme
row,Variant,self-cleavage
1,C85U U131C,0.69
2,A86G A91U,0.73
3,A86G A91G,0.16
4,A78C A86U,0.19
5,C81U A86G,0.17
6,A82G A94G,0.32
7,A82G A94U,0.64
8,A78U A129C,0.14
9,A78U A129G,0.18
10,A78U U102A,0.16
11,A78C A125G,0.04
12,C85A A134G,1.83
13,G84A A135G,2.3
14,A78U A95G,0.84
15,A78U A95U,0.2
16,A82U A118G,0.06
17,G83A A89G,1.56
18,A82U U108A,0.03
19,A86G A135G,0.99
20,A78G A92G,0.13
21,A82C A96G,0.11
22,C85U A134G,2.28
23,A82U U122C,0.17
24,A82U U122A,0.16

row,Variant,self-cleavage
1,G84A A94G,0.98
2,A78U C88U,0.42
3,A78G U97C,0.38
4,A78C U100A,0.11
5,A78U A92G,0.29
6,A86G C105A,0.02
7,C77U A90G,2.13
8,A78U U122A,0.31
9,A78U U122C,0.14
10,A86G A116U,0.36
11,A86G A129G,0.22
12,A86G A129C,1.29
13,G80A A92G,0.16
14,A78U U133C,0.37
15,A78U U120C,0.12
16,A78U U120G,0.37
17,C85A G106U,0.03
18,A82G U132C,0.5
19,A82G A90G,0.31
20,A82G A91G,0.12
21,A82U A90U,0.08
22,A82U A90G,0.33
23,A82G A114U,0.03
24,A82G A114G,0.08

row,Variant,self-cleavage
1,A86G U102A,1.36
2,A78G A89U,0.24
3,A78G A89C,0.43
4,G80A,0.24
5,G80U,0.1
6,G80C,0.07
7,A82C A89C,0.16
8,A78C A98U,0.58
9,G79A U87C,0.1
10,G79A U87A,0.11
11,G79A U130C,0.15
12,A78G A86U,0.1
13,G84U C88U,0.52
14,G84C U122C,0.23
15,A78G A96G,0.24
16,A78G G84A,0.24
17,G83A U131A,0.94
18,G84A U127C,2.46
19,G79A C112G,0.12
20,A82G A129G,0.47
21,A78U C105U,0.03
22,A78U A111U,0.04
23,A82G G138C,0.66
24,A78G U122C,0.19

row,Variant,self-cleavage
1,A78G U122G,0.15
2,A82G A111G,0.04
3,A82G A111U,0.09
4,A82G A111C,0.01
5,G79U G104U,0.01
6,A78C A90G,0.16
7,A78U U87G,0.09
8,A82G U130C,0.14
9,G79U A94G,0.43
10,A78G U100G,0.35
11,C77A A114G,0.32
12,G79A A117G,0.09
13,A86G U87A,1.4
14,G84A U131C,2.37
15,A82G U87C,0.46
16,A82G U87A,0.32
17,G80A A129G,0.09
18,A78G A126G,0.15
19,A86G A110U,1.06
20,A82C U120C,0.11
21,A86G A92G,1.07
22,C77A U122C,0.6
23,G80A C81A,0.11
24,A82U U103C,0.03

row,Variant,self-cleavage
1,G80U A91G,0.11
2,G79A A134G,0.09
3,A82U A140U,0.24
4,A78U G138A,0.36
5,A78U U131A,0.18
6,C81U A129U,0.16
7,A78C A111U,0.01
8,G83A A94G,1.79
9,A78U C128A,0.04
10,A86C A94G,0.32
11,A86C A94U,1.15
12,G80C U103C,0.03
13,A82G U97A,0.92
14,A82G U97C,0.5
15,G80A A91G,0.08
16,A78G C109A,0.05
17,C81A A92G,0.26
18,A78U A90G,0.32
19,A86G U124C,0.3
20,G80U U87C,0.22
21,C77U A126G,1.49
22,G79A A94G,0.15
23,C85U U127C,0.82
24,A78G A90C,0.12

row,Variant,self-cleavage
1,A78G A90U,0.31
2,A86C U127A,1.62
3,A78U A94U,0.4
4,A78U A94G,0.33
5,A82G C112U,0
6,A82G A117G,0.85
7,A78U A89G,0.27
8,G80U U139A,0.09
9,C85U A117G,1.16
10,A82G A140U,0.53
11,C76U A86U,0.08
12,A86G A126G,1.18
13,G80U U120C,0.08
14,A82U U120C,0.03
15,A78G G106C,0.02
16,A78G G106U,0.01
17,A86G A89U,1.86
18,A82C A116G,0.09
19,G83A A135G,1.3
20,C77U U103C,2.12
21,A86G A125U,0.14
22,A86G A125G,0.45
23,G83U A135G,0.56
24,A86G U108A,0.01

row,Variant,self-cleavage
1,A82U A92U,0.26
2,G83A A92G,1.87
3,C81U A82G,0.14
4,C85U A90C,1.2
5,C77A U131C,0.5
6,A86G A94G,1.47
7,A86C U139C,0.51
8,A78U A96G,0.38
9,A86C G106U,0.01
10,A78G A117U,0.1
11,A78G A117C,0.22
12,A78G G123U,0.25
13,G83U,0.45
14,G83A,1.55
15,G83C,0.35
16,C76U U108C,0
17,A82G A86G,0.14
18,C77U A89U,2.73
19,A82G C85U,0.32
20,A78G A129G,0
21,A78G A129C,0.11
22,A78U A140G,0.34
23,A78C A110G,0.13
